# In PMC4224142:
# Target: JunD, endogenous in LNCaP cells (human (endogenous in LNCaP)) (UniProt P17535)
# Experiment: proximity ligation
# Chain of UniProt P17535 (P17535 whole entry): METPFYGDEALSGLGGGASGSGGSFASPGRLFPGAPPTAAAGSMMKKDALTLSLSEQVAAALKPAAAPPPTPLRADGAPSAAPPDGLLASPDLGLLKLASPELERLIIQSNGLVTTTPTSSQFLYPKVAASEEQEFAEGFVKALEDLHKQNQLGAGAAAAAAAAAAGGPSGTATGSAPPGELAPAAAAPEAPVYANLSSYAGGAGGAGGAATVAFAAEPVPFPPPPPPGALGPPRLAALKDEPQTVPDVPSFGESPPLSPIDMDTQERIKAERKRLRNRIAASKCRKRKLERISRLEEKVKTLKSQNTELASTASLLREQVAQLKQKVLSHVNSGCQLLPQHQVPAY
substance,measurement,value
"Androgen receptor (AR), endogenous in LNCaP cells (from UniProt P10275 1-920)",fold induction of PLA spots per cell by androgen (against cells without R1881),3 fold
